Data: publication PMC7367873, “Dissecting the sequence determinants for dephosphorylation by the catalytic subunits of phosphatases PP1 and PP2A” (Nature Communications, 2020)

B1: TMEM33 (protein, UniProt P57088 2-247, looked up)
Transmembrane protein 33: ADTTPNGPQGAGAVQFMMTNKLDTAMWLSRLFTVYCSALFVLPLLGLHEAASFYQRALLANALTSALRLHQRLPHFQLSRAFLAQALLEDSCHYLLYSLIFVNSYPVTMSIFPVLLFSLLHAATYTKKVLDARGSNSLPLLRSVLDKLSANQQNILKFIACNEIFLMPATVFMLFSGQGSLLQPFIYYRFLTLRYSSRRNPYCRTLFNELRIVVEHIIMKPACPLFVRRLCLQSIAFISRLAPTVP
B2: GIGYF2 (protein, UniProt Q6Y7W6 2-1299, looked up)
GRB10-interacting GYF protein …: AAETQTLNFGPEWLRALSSGGSITSPPLSPALPKYKLADYRYGREEMLALFLKDNKIPSDLLDKEFLPILQEEPLPPLALVPFTEEEQRNFSMSVNSAAVLRLTGRGGGGTVVGAPRGRSSSRGRGRGRGECGFYQRSFDEVEGVFGRGGGREMHRSQSWEERGDRRFEKPGRKDVGRPNFEEGGPTSVGRKHEFIRSESENWRIFREEQNGEDEDGGWRLAGSRRDGERWRPHSPDGPRSAGWREHMERRRRFEFDFRDRDDERGYRRVRSGSGSIDDDRDSLPEWCLEDAEEEMGTFDSSGAFLSLKKVQKEPIPEEQEMDFRPVDEGEECSDSEGSHNEEAKEPDKTNKKEGEKTDRVGVEASEETPQTSSSSARPGTPSDHQSQEASQFERKDEPKTEQTEKAEEETRMENSLPAKVPSRGDEMVADVQQPLSQIPSDTASPLLILPPPVPNPSPTLRPVETPVVGAPGMGSVSTEPDDEEGLKHLEQQAEKMVAYLQDSALDDERLASKLQEHRAKGVSIPLMHEAMQKWYYKDPQGEIQGPFNNQEMAEWFQAGYFTMSLLVKRACDESFQPLGDIMKMWGRVPFSPGPAPPPHMGELDQERLTRQQELTALYQMQHLQYQQFLIQQQYAQVLAQQQKAALSSQQQQQLALLLQQFQTLKMRISDQNIIPSVTRSVSVPDTGSIWELQPTASQPTVWEGGSVWDLPLDTTTPGPALEQLQQLEKAKAAKLEQERREAEMRAKREEEERKRQEELRRQQEEILRRQQEEERKRREEEELARRKQEEALRRQREQEIALRRQREEEERQQQEEALRRLEERRREEEERRKQEELLRKQEEEAAKWAREEEEAQRRLEENRLRMEEEAARLRHEEEERKRKELEVQRQKELMRQRQQQQEALRRLQQQQQQQQLAQMKLPSSSTWGQQSNTTACQSQATLSLAEIQKLEEERERQLREEQRRQQRELMKALQQQQQQQQQKLSGWGNVSKPSGTTKSLLEIQQEEARQMQKQQQQQQQHQQPNRARNNTHSNLHTSIGNSVWGSINTGPPNQWASDLVSSIWSNADTKNSNMGFWDDAVKEVGPRNSTNKNKNNASLSKSVGVSNRQNKKVEEEEKLLKLFQGVNKAQDGFTQWCEQMLHALNTANNLDVPTFVSFLKEVESPYEVHDYIRAYLGDTSEAKEFAKQFLERRAKQKANQQRQQQQLPQQQQQQPPQQPPQQPQQQDSVWGMNHSTLHSVFQTNQSNNQQSNFEAVQSGKKKKKQKMVRADPSLLGFSVNASSERLNMGEIETLDDY
B3: HSD17B4 (protein, UniProt P51659 1-736, looked up)
Peroxisomal multifunctional …: MGSPLRFDGRVVLVTGAGAGLGRAYALAFAERGALVVVNDLGGDFKGVGKGSLAADKVVEEIRRRGGKAVANYDSVEEGEKVVKTALDAFGRIDVVVNNAGILRDRSFARISDEDWDIIHRVHLRGSFQVTRAAWEHMKKQKYGRIIMTSSASGIYGNFGQANYSAAKLGLLGLANSLAIEGRKSNIHCNTIAPNAGSRMTQTVMPEDLVEALKPEYVAPLVLWLCHESCEENGGLFEVGAGWIGKLRWERTLGAIVRQKNHPMTPEAVKANWKKICDFENASKPQSIQESTGSIIEVLSKIDSEGGVSANHTSRATSTATSGFAGAIGQKLPPFSYAYTELEAIMYALGVGASIKDPKDLKFIYEGSSDFSCLPTFGVIIGQKSMMGGGLAEIPGLSINFAKVLHGEQYLELYKPLPRAGKLKCEAVVADVLDKGSGVVIIMDVYSYSEKELICHNQFSLFLVGSGGFGGKRTSDKVKVAVAIPNRPPDAVLTDTTSLNQAALYRLSGDWNPLHIDPNFASLAGFDKPILHGLCTFGFSARRVLQQFADNDVSRFKAIKARFAKPVYPGQTLQTEMWKEGNRIHFQTKVQETGDIVISNAYVDLAPTSGTSAKTPSEGGKLQSTFVFEEIGRRLKDIGPEVVKKVNAVFEWHITKGGNIGAKWTIDLKSGSGKVYQGPAKGAADTTIILSDEDFMEVVLGKLDPQKAFFSGRLKARGNIMLSQKLQMILKDYAKL
B4: HNRNPA3 (protein, UniProt P51991 1-378, looked up)
Heterogeneous nuclear …: MEVKPPPGRPQPDSGRRRRRRGEEGHDPKEPEQLRKLFIGGLSFETTDDSLREHFEKWGTLTDCVVMRDPQTKRSRGFGFVTYSCVEEVDAAMCARPHKVDGRVVEPKRAVSREDSVKPGAHLTVKKIFVGGIKEDTEEYNLRDYFEKYGKIETIEVMEDRQSGKKRGFAFVTFDDHDTVDKIVVQKYHTINGHNCEVKKALSKQEMQSAGSQRGRGGGSGNFMGRGGNFGGGGGNFGRGGNFGGRGGYGGGGGGSRGSYGGGDGGYNGFGGDGGNYGGGPGYSSRGGYGGGGPGYGNQGGGYGGGGGYDGYNEGGNFGGGNYGGGGNYNDFGNYSGQQQSNYGPMKGGSFGGRSSGSPYGGGYGSGGGSGGYGSRRF
B5: DBN1 (protein, UniProt Q16643 2-649, looked up)
Drebrin: AGVSFSGHRLELLAAYEEVIREESAADWALYTYEDGSDDLKLAASGEGGLQELSGHFENQKVMYGFCSVKDSQAALPKYVLINWVGEDVPDARKCACASHVAKVAEFFQGVDVIVNASSVEDIDAGAIGQRLSNGLARLSSPVLHRLRLREDENAEPVGTTYQKTDAAVEMKRINREQFWEQAKKEEELRKEEERKKALDERLRFEQERMEQERQEQEERERRYREREQQIEEHRRKQQTLEAEEAKRRLKEQSIFGDHRDEEEETHMKKSESEVEEAAAIIAQRPDNPREFFKQQERVASASAGSCDVPSPFNHRPGSHLDSHRRMAPTPIPTRSPSDSSTASTPVAEQIERALDEVTSSQPPPLPPPPPPAQETQEPSPILDSEETRAAAPQAWAGPMEEPPQAQAPPRGPGSPAEDLMFMESAEQAVLAAPVEPATADATEIHDAADTIETDTATADTTVANNVPPAATSLIDLWPGNGEGASTLQGEPRAPTPPSGTEVTLAEVPLLDEVAPEPLLPAGEGCATLLNFDELPEPPATFCDPEEVEGESLAAPQTPTLPSALEELEQEQEPEPHLLTNGETTQKEGTQASEGYFSQSQEEEFAQSEELCAKAPPPVFYNKPPEIDITCWDADPVPEEEEGFEGGD
B6: SH3BP5L (protein, UniProt Q7L8J4 1-393, looked up)
SH3 domain-binding protein …: MAELRQVPGGRETPQGELRPEVVEDEVPRSPVAEEPGGGGSSSSEAKLSPREEEELDPRIQEELEHLNQASEEINQVELQLDEARTTYRRILQESARKLNTQGSHLGSCIEKARPYYEARRLAKEAQQETQKAALRYERAVSMHNAAREMVFVAEQGVMADKNRLDPTWQEMLNHATCKVNEAEEERLRGEREHQRVTRLCQQAEARVQALQKTLRRAIGKSRPYFELKAQFSQILEEHKAKVTELEQQVAQAKTRYSVALRNLEQISEQIHARRRGGLPPHPLGPRRSSPVGAEAGPEDMEDGDSGIEGAEGAGLEEGSSLGPGPAPDTDTLSLLSLRTVASDLQKCDSVEHLRGLSDHVSLDGQELGTRSGGRRGSDGGARGGRHQRSVSL
B7: FLII (protein, UniProt Q13045 1-1269, looked up)
Protein flightless-1 homolog: MEATGVLPFVRGVDLSGNDFKGGYFPENVKAMTSLRWLKLNRTGLCYLPEELAALQKLEHLSVSHNNLTTLHGELSSLPSLRAIVARANSLKNSGVPDDIFKLDDLSVLDLSHNQLTECPRELENAKNMLVLNLSHNSIDTIPNQLFINLTDLLYLDLSENRLESLPPQMRRLVHLQTLVLNGNPLLHAQLRQLPAMTALQTLHLRSTQRTQSNLPTSLEGLSNLADVDLSCNDLTRVPECLYTLPSLRRLNLSSNQITELSLCIDQWVHVETLNLSRNQLTSLPSAICKLSKLKKLYLNSNKLDFDGLPSGIGKLTNLEEFMAANNNLELVPESLCRCPKLRKLVLNKNHLVTLPEAIHFLTEIEVLDVRENPNLVMPPKPADRAAEWYNIDFSLQNQLRLAGASPATVAAAAAAGSGPKDPMARKMRLRRRKDSAQDDQAKQVLKGMSDVAQEKNKKQEESADARAPSGKVRRWDQGLEKPRLDYSEFFTEDVGQLPGLTIWQIENFVPVLVEEAFHGKFYEADCYIVLKTFLDDSGSLNWEIYYWIGGEATLDKKACSAIHAVNLRNYLGAECRTVREEMGDESEEFLQVFDNDISYIEGGTASGFYTVEDTHYVTRMYRVYGKKNIKLEPVPLKGTSLDPRFVFLLDRGLDIYVWRGAQATLSSTTKARLFAEKINKNERKGKAEITLLVQGQELPEFWEALGGEPSEIKKHVPEDFWPPQPKLYKVGLGLGYLELPQINYKLSVEHKQRPKVELMPRMRLLQSLLDTRCVYILDCWSDVFIWLGRKSPRLVRAAALKLGQELCGMLHRPRHATVSRSLEGTEAQVFKAKFKNWDDVLTVDYTRNAEAVLQSPGLSGKVKRDAEKKDQMKADLTALFLPRQPPMSLAEAEQLMEEWNEDLDGMEGFVLEGKKFARLPEEEFGHFYTQDCYVFLCRYWVPVEYEEEEKKEDKEEKAEGKEGEEATAEAEEKQPEEDFQCIVYFWQGREASNMGWLTFTFSLQKKFESLFPGKLEVVRMTQQQENPKFLSHFKRKFIIHRGKRKAVQGAQQPSLYQIRTNGSALCTRCIQINTDSSLLNSEFCFILKVPFESEDNQGIVYAWVGRASDPDEAKLAEDILNTMFDTSYSKQVINEGEEPENFFWVGIGAQKPYDDDAEYMKHTRLFRCSNEKGYFAVTEKCSDFCQDDLADDDIMLLDNGQEVYMWVGTQTSQVEIKLSLKACQVYIQHMRSKEHERPRRLRLVRKGNEQHAFTRCFHAWSAFCKALA

The molecules below were run on GFP-14-3-3β (assay: GFP-14-3-3β co-IP with LC-MS/MS, untreated GFP-14-3-3β versus GFP control (14-3-3 interactome)). Conditions: log2 difference; pairwise comparison untreated vs GFP, label-free quantification, 3 replicates each.
Assay type: binding, human

Q: How did the “Difference (log2), untreated vs GFP” value turn out when B1 was run?
A: 0.3842

Same assay, conditions: untreated vs GFP; LFQ intensities, replicates 1-3

Q: B2 was tested. Which “Difference (log2), untreated vs GFP” value did it give?
A: 2.445 log2

Q: B3 was tested. Which “Difference (log2), untreated vs GFP” value did it give?
A: -0.9814 log2

Q: Which “Difference (log2), untreated vs GFP” value does the source give for B4 here?
A: 1.1202 log2

Q: B5 was tested. Which “Difference (log2), untreated vs GFP” value did it give?
A: -0.06481 log2

Q: Which “Difference (log2), untreated vs GFP” value does the source give for B6 here?
A: 3.944 log2

Q: With B7 as the molecule, how does the “Difference (log2), untreated vs GFP” value read?
A: 1.165 log2

These molecules were tested on GFP-14-3-3β and its binding proteins (assay: GFP-14-3-3β co-IP with LC-MS/MS label-free quantification, untreated versus PP1c-treated). Conditions: PP1 vs untreated; LFQ intensities, replicates 1-3.
Set-up: species or system human

Q: B2 was tested. Which “Difference (log2), PP1 vs untreated” value did it give?
A: -0.9344 log2

Q: With B3 as the molecule, how does the “Difference (log2), PP1 vs untreated” value read?
A: -0.9107 log2

Q: Which “Difference (log2), PP1 vs untreated” value does the source give for B4 here?
A: -0.8983 log2

Q: With B5 as the molecule, how does the “Difference (log2), PP1 vs untreated” value read?
A: -0.9011 log2

Q: B6 was tested. Which “Difference (log2), PP1 vs untreated” value did it give?
A: -0.8873 log2

Q: With B7 as the molecule, how does the “Difference (log2), PP1 vs untreated” value read?
A: -0.8907 log2

Same assay, conditions: log2 difference; pairwise comparison PP1 vs untreated, label-free quantification, 3 replicates each

Q: How did the “Difference (log2), PP1 vs untreated” value turn out when B1 was run?
A: 1.645
